Drawing on paper PMC12369479, this text covers Km and kcat for four proteins.

Substrate in data set [1]: Nc1ncnc2c1ncn2[C@@H]1O[C@H](CO)[C@@H](O)[C@H]1O
Nature of the data set: purified protein, by the assay type. The following applies: pH 7.5, 30 °C.

Substrate in data set [2]: CC(C)=CCNc1ncnc2c1ncn2C1OC(CO)C(O)C1O
The experiment in a line: ADK activity, coupled reaction with PK and LDH. The data set is classed as biochemical, Physcomitrella patens. The note with it: other: PpADK1, 10 mM ATP, pH 7.5, 30 °C. Here is the method:
(§1) Substrate analogs were purchased from Sigma-Aldrich (www.sigmaaldrich.com). The ADK activity was measured spectrophotometrically on an Agilent 8453 UV-Vis spectrophotometer (www.agilent.com) at 30 °C using a coupled reaction with pyruvate kinase (PK) and lactate dehydrogenase (LDH) (www.sigmaaldrich.com) ([Blondin et al., 1994]). In this assay, PK converts ADP produced by ADK and phosphoenolpyruvate (PEP) to pyruvate. Subsequently, LDH then converts pyruvate to lactate using the coenzyme NADH, with the conversion monitored at 340 nm. The reaction was conducted in 50 mM Tris–HCl buffer at pH 7.5, containing 50 mM KCl, 6 mM MgCl2, 300 µM PEP, 200 µM NADH, 10 mM ATP, 2 U of PK, and 2.5 U of LDH, using various nucleoside substrates. Kinetic constants were determined using GraphPad Prism 8.0 software (www.graphpad.com). Each measurement was performed six times using repetitive purified enzymes. The activities of all five ADKs were also measured by HPLC ([Moffatt et al., 1991]). The reaction mixture comprised 50 mM Tris–HCl pH 7.5, 5 mM MgCl2, 0.5 mM DTT, 30 mM NaF, 5 mM ATP, 40 µM substrate, and 2–150 ng of purified ADK, depending on the isoform. The reaction was incubated at 30 °C for up to 1 h. […]

Substrate in data set [3]: Nc1ncnc2c1ncn2[C@@H]1O[C@H](CO)[C@@H](O)[C@H]1O
The experiment in a line: ADK activity, coupled reaction with PK and LDH. The data set is classed as biochemical, Physcomitrella patens. The note with it: other: PpADK1, 10 mM ATP, pH 7.5, 30 °C. Here is the method: as §1

Substrate in data set [4]: CC(C)=CCNc1ncnc2c1ncn2C1OC(CO)C(O)C1O
The experiment in a line: ADK activity, coupled reaction with PK and LDH. The data set is classed as biochemical, Zea mays. The following applies: other: ZmADK2, 10 mM ATP, pH 7.5, 30 °C. Here is the method: (§2) Substrate analogs were purchased from Sigma-Aldrich (www.sigmaaldrich.com). The ADK activity was measured spectrophotometrically on an Agilent 8453 UV-Vis spectrophotometer (www.agilent.com) at 30 °C using a coupled reaction with pyruvate kinase (PK) and lactate dehydrogenase (LDH) (www.sigmaaldrich.com) ([Blondin et al., 1994]). In this assay, PK converts ADP produced by ADK and phosphoenolpyruvate (PEP) to pyruvate. Subsequently, LDH then converts pyruvate to lactate using the coenzyme NADH, with the conversion monitored at 340 nm. The reaction was conducted in 50 mM Tris–HCl buffer at pH 7.5, containing 50 mM KCl, 6 mM MgCl2, 300 µM PEP, 200 µM NADH, 10 mM ATP, 2 U of PK, and 2.5 U of LDH, using various nucleoside substrates. Kinetic constants were determined using GraphPad Prism 8.0 software (www.graphpad.com). Each measurement was performed six times using repetitive purified enzymes. The activities of all five ADKs were also measured by HPLC ([Moffatt et al., 1991]). The reaction mixture comprised 50 mM Tris–HCl pH 7.5, 5 mM MgCl2, 0.5 mM DTT, 30 mM NaF, 5 mM ATP, 40 µM substrate, and 2–150 ng of purified ADK, depending on the isoform. The reaction was incubated at 30 °C for up to 1 h. […] Similarly, the conversion of cytokinin ribosides to monophosphates was followed on a LiChrosphere 60 RP-Select B (5 µm) LiChroCART column 125-4 column equilibrated with 10 mM triethylamine at pH 5.4 plus 10% methanol, and stepwise eluted with 100% methanol.

Substrate in data set [5]: Nc1ccn([C@@H]2O[C@H](CO)[C@@H](O)[C@H]2O)c(=O)n1
The experiment in a line: ADK activity, coupled reaction with PK and LDH. The data set is classed as biochemical, Zea mays. The note with it: other: ZmADK2, 10 mM ATP, pH 7.5, 30 °C. Here is the method:
as §2

Substrate in data set [6]: Nc1nc2c(ncn2[C@@H]2O[C@H](CO)[C@@H](O)[C@H]2O)c(=O)[nH]1
Nature of the data set: ADK activity, coupled reaction with PK and LDH. The data set is classed as biochemical, Zea mays. The note with it: other: ZmADK2, 10 mM ATP, pH 7.5, 30 °C. Here is the method: as §2

Substrate in data set [7]: Nc1ncnc2c1ncn2[C@@H]1O[C@H](CO)C[C@H]1O
Nature of the data set: ADK activity, coupled reaction with PK and LDH. The data set is classed as biochemical, Zea mays. The following applies: other: ZmADK2, 10 mM ATP, pH 7.5, 30 °C. Here is the method: as §2

Substrate in data set [8]: Nc1ncnc2c1ncn2[C@@H]1O[C@H](CO)[C@@H](O)[C@@H]1O
Nature of the data set: ADK activity, coupled reaction with PK and LDH. The data set is classed as biochemical, Zea mays. The note with it: other: ZmADK2, 10 mM ATP, pH 7.5, 30 °C. Here is the method: as §2

Substrate in data set [9]: Nc1ncnc2c1ncn2[C@@H]1O[C@H](CO)[C@@H](O)[C@H]1O
The experiment in a line: ADK activity, coupled reaction with PK and LDH. Type of data set: biochemical, Zea mays. The following applies: other: ZmADK2, 10 mM ATP, pH 7.5, 30 °C. Here is the method:
as §2

Substrate in data set [10]: O=c1[nH]c(=O)c2ncn([C@@H]3O[C@H](CO)[C@@H](O)[C@H]3O)c2[nH]1
The experiment in a line: ADK activity, coupled reaction with PK and LDH. Type of data set: biochemical, Zea mays. The note with it: other: ZmADK2, 10 mM ATP, pH 7.5, 30 °C. Here is the method:
as §2

Substrate in data set [11]: OC[C@H]1O[C@@H](n2cnc3c(O)ncnc32)[C@H](O)[C@@H]1O
Nature of the data set: ADK activity, coupled reaction with PK and LDH. The data set is classed as biochemical, Zea mays. The note with it: other: ZmADK2, 10 mM ATP, pH 7.5, 30 °C. Here is the method:
as §2

Where “and” joins values, the source holds several entries; their conditions need not be identical. Equal values may be shown once.

B1: ZmADK1 (Zea mays) (protein)
chain: MAASEGVLLGMGNPLLDISAVVDDAFLAKYDIKLNNAILAEEKHSPMYDELASNSNVEYIAGGATQNSIRVAQWMLQTPGATSYMGCIGKDKFGEEMKKNAQAAGVTAHYYEDETAPTGTCAVCVVGGERSLIANLSAANCYKSEHLKRPENWALVEKAKYIYIAGFFLTVSPDSIQLVAEHAAANNKVFLMNLSAPFICEFFYDAQEKVLPYADFIFGNETEAKIFAKVRGWETENVEEIALKISQLPLASGKQKRIAVITQGADPVVVAEDGKVKTFPVILLPKEKLVDTNGAGDAFVGGFLSRLVQGKSIEDCVTAGCYAANVVIQRPGCTYPEKPDFN
With B1, the Km in data set [1] (other: ZmADK1, 10 mM ATP) worked out at 0.62 ± 0.11 µM.

B2: PpADK1 (Physcomitrium patens) (protein)
chain: MASEGVLLGMGNPLLDISCVVDDAFLEKYGLTLNNAILAEDKHLPMYKELAANPDVEYIAGGATQNTIRIAQWMLGESNATSYFGCVGKDEYGDRMFKLASEGGVNIRYDVDEDLPTGTCGVLVVKGERSLVANLSAANKYKIDHLKKPENWAFVEKAKYIYSAGFFLTVSPESMMTVAKHAAETGKYYMINLAAPFICQFFKDPLMELFPYVDFIFGNESEARAFAQVQGWETEDTKVIAVKLAALPKAGGTHKRVAVITQGTDPTIVAEDGKVTEFPVTPIPKEKLVDTNAAGDSFVGGFLSQLVLGKDIAQCVRAGNYAASVIIQRSGCTFPSKPSFESQ
notes: made in house; host or cells: E. coli T7 Express Iq
With B2, the Km in data set [2] was 12.1 ± 2.5 µM; in data set [3], 0.71 ± 0.05 µM.

B3: PpADK2 (Physcomitrium patens) (protein)
chain: MASEGVLLGMGNPLLDISCVVDEAFLEKYGLTLNNAILAEDKHLPIYKELAGRPDVEYIAGGATQNTIRIAQWMLREPKATSYIGCVGKDEFGDRMYKLASEGGVNIQYDVDEELPTGTCGVLVVKGERSLVANLSAAKKYKIDHLKKPENWVCVERAKFIYSSGFFLAVSPESMMTVARHAAETGKYYMINLAAPFICQFKDLMELFPYVDFIFGNESEARTFAQVQGWETEDTKIIAVKLAALPKASGTHKRVAVITQGTDPTIVSVDGQVTEIPITVIPKNKLVDTNAAGDAFVGGFLSQLVLGKDIVECVRAGNYASSIIIQRSGCTFPLKPCFQSE
Take B3: the Michaelis-Menten constant (Km) in data set [1] (other: PpADK2, 10 mM ATP) was found to be 0.54 ± 0.05 µM.

B4: ZmADK2 (Zea mays; T4S) (protein)
chain: MAASEGVLLGMGNPLLDISAVVDDAFLTKYDIKLNNAILAEEKHLPMYDELASKSNVEYIAGGATQNSIRVAQWMLQTPGATSYMGCIGKDKFGEEMKKNAQAAGVTAHYYEDETAPTGTCAVCVVGGERSLIANLSAANCYKSEHLKRPENWALVEKAKYIYIAGFFLTVSPDSIQLVAEHAAANNKVFLMNLSAPFICEFFRDAQEKVLPYADYIFGNETEAKIFAKVRGWETENIEEIALKISQLPLASGKQKRIAVITQGADPVVVAEDGKVKTFPVILLPKEKLVDTNGAGDAFVGGFLSQLVLGKGIEDCVRAGCYAANVIIQRPGCTYPEKPDFN
Take B4: the Michaelis-Menten constant (Km) was 9.8 ± 1.5 µM in [4]; 313 ± 28 µM in [5]; 218 ± 23 µM in data set [6]; 170 µM and 173 ± 11 µM in [7]; 524 ± 51 µM in data set [8]; 0.65 ± 0.09 µM in [9]. The Michaelis-Menten constant (Km) is 178 ± 10 µM in data set [10] and 420 ± 44 µM in data set [11]. Also, the catalytic constant (kcat) was determined as 0.23 ± 0.01 s⁻¹ in data set [5]; 0.48 ± 0.02 s⁻¹ in data set [6]; 0.43 ± 0.01 s⁻¹ in [7]; 0.24 ± 0.02 s⁻¹ in data set [8]; 0.55 ± 0.01 s⁻¹ in data set [10]; 0.57 ± 0.02 s⁻¹ in [11].
